Earlier results in PMC3569056.

Biological target: Cys22 (UniProt position 23, FIKPTCPYCRR)
Test: chemical modification

For “Glutaredoxin 1 (hGrx1, thioltransferase) (Homo sapiens)”, the pKa is given as 3.5.
